Measurements as given in PMC5949987.

What was measured:
cerulean–β2AR = cerulean–β2AR (UniProt P07550); assay: calibrated confocal fluorescence intensities at the plasma membrane; HEK 293 cells expressing cerulean-β2AR and venus–mGs, 10 μM isoproterenol, steady state; venus and cerulean intensities calibrated with the standard protein cerulean–TM–venus; n = 17
β2AR–SmBit = β2AR–SmBit (UniProt P07550); assay: split reporter (BiFC, NanoBiT); NanoLuc complementation in intact HEK 293 cells cotransfected with receptor–SmBit and LgBit–mG; total luminescence with furimazine against agonist concentration
β2AR–Rluc8 = β2AR–Rluc8 (UniProt P07550); assay: FRET or BRET; intact HEK 293 cells with agonist; receptor–Rluc8 or receptor–Nluc as donor, NES–venus–mG as acceptor; net BRET; DPBS, 96-well plates

venus–mGs (domain or fragment)
stoichiometry N (venus–mGs per cerulean–β2AR) (cerulean–β2AR): 1.17

LgBit–mGs
fold increase in luminescence intensity on agonist stimulation (β2AR–SmBit): < 20 fold

NES–venus–mGs (domain or fragment)
time to dissociate after addition of the inverse agonist ICI 118,551 (β2AR–Rluc8): > 15 min
